Test results reported in publication PMC9331606 (2022).

Tests used:
[1] = target: NanoLuciferase-tagged rat promyelocytic leukemia protein (rPML); assay: NanoBRET; conditions: HEK293T cells transfected 24 h; 4 h incubation with Halo ligand; detection time 5 s at 618 nm and 448 nm; parent: est. 2.8; read off a plot
[2] = target: NanoLuciferase-tagged human promyelocytic leukemia protein (hPML) (UniProt P29590); assay: NanoBRET; conditions: HEK293T cells transfected 24 h; 4 h incubation with Halo ligand; detection time 5 s at 618 nm and 448 nm; parent: est. 23; read off a plot
Sequence of NanoLuciferase-tagged human promyelocytic leukemia protein (hPML) (P29590 whole entry): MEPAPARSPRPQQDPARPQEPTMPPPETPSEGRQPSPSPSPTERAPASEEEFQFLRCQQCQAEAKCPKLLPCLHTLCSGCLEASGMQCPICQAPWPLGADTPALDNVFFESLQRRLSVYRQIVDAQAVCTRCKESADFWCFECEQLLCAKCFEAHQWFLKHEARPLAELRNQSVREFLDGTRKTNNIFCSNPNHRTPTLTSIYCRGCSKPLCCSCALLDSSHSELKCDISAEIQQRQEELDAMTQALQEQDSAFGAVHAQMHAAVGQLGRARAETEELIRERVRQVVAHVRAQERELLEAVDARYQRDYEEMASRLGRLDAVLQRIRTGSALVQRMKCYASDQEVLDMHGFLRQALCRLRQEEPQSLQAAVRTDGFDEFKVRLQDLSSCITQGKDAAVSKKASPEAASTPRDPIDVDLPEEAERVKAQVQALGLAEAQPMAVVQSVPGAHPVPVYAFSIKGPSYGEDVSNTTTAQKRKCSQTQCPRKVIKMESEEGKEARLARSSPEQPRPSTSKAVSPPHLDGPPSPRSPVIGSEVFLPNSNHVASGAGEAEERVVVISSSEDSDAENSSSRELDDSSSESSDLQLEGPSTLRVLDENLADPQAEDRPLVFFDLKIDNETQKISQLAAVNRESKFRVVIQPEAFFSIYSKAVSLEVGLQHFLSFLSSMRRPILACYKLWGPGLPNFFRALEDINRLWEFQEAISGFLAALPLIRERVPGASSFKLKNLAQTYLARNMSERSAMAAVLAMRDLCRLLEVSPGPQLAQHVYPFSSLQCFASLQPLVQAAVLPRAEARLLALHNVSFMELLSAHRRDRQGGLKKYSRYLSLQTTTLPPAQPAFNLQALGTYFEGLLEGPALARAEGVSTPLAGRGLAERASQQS

| Substance | response [1] [mBU] | response [2] [mBU] |
| --- | --- | --- |
| Halo-tagged human cytomegalovirus immediate early 1 protein (hIE1) (from UniProt P13202) L174P | 7 | – |
| Halo-tagged human cytomegalovirus immediate early 1 protein (hIE1) (from UniProt P13202) cc172-176 | – | 24 |
| Halo-tagged human cytomegalovirus immediate early 1 protein (hIE1) (from UniProt P13202) hIE1_rH1 | 5.5 | 1.6 |
| Halo-tagged human cytomegalovirus immediate early 1 protein (hIE1) (from UniProt P13202) hIE1_rH1/2 | 6.5 | 3.7 |
| Halo-tagged human cytomegalovirus immediate early 1 protein (hIE1) (from UniProt P13202) hIE1_rH4 | 4 | 4.1 |
| Halo-tagged human cytomegalovirus immediate early 1 protein (hIE1) (from UniProt P13202) hIE1_rH8 | 6.5 | 2.2 |
| Halo-tagged human cytomegalovirus immediate early 1 protein (hIE1) (from UniProt P13202) hIE1_rH10/11 | 6.5 | 2.6 |
